Source: patent US20240360203A1
Read-outs that look alike come from different tables or passages of the source.

Assays:
Test in all cases: cell-based or functional assay
[1] = target: SARS-CoV-2 BA.2 spike protein (SARS-CoV-2)
[2] = target: SARS-CoV-2 BA.2.12.1 Spike on pseudovirus (SARS-CoV-2) (UniProt P0DTC2)
[3] = target: SARS-CoV-2 BA.1 Spike on pseudovirus (SARS-CoV-2) (UniProt P0DTC2)
[4] = target: SARS-CoV-2 BA.2 Spike on pseudovirus (SARS-CoV-2) (UniProt P0DTC2)
[5] = target: SARS-CoV-2 Delta Spike on pseudovirus (SARS-CoV-2) (UniProt P0DTC2)
[6] = target: SARS-CoV-2 BA.2.12.1 Spike on pseudovirus (SARS-CoV-2) (UniProt P0DTC2); remark: listed apart in the source
[7] = target: SARS-CoV-2 BA.1 Spike on pseudovirus (SARS-CoV-2) (UniProt P0DTC2); remark: listed apart in the source
[8] = target: SARS-CoV-2 BA.2 Spike on pseudovirus (SARS-CoV-2) (UniProt P0DTC2); remark: listed apart in the source
[9] = target: SARS-CoV-2 BA.4/5 Spike on pseudovirus (SARS-CoV-2) (UniProt P0DTC2)
[10] = target: SARS-CoV-2 Delta Spike on pseudovirus (SARS-CoV-2) (UniProt P0DTC2); remark: listed apart in the source
[11] = target: SARS-CoV-2 BA.4/5 Spike on pseudovirus (SARS-CoV-2) (UniProt P0DTC2); remark: listed apart in the source
[12] = target: SARS-CoV-2 BA.4/5 Spike on pseudovirus (SARS-CoV-2) (UniProt P0DTC2); remark: listed apart in the source
[13] = target: SARS-CoV-2 Delta (B.1.617.2) spike protein (SARS-CoV-2)
[14] = target: SARS-CoV-2 BQ.1.1 spike protein (SARS-CoV-2)
[15] = target: SARS-CoV-2 XBB.1.5 spike protein (SARS-CoV-2)
[16] = target: SARS-CoV-2 Delta (B.1.617.2) spike protein (SARS-CoV-2); remark: listed apart in the source
[17] = target: SARS-CoV-2 BQ.1.1 spike protein (SARS-CoV-2); remark: listed apart in the source
[18] = target: SARS-CoV-2 XBB.1.5 spike protein (SARS-CoV-2); remark: listed apart in the source
[19] = target: SARS-CoV-2 Delta (B.1.617.2) spike protein (SARS-CoV-2); remark: listed apart in the source
[20] = target: SARS-CoV-2 BQ.1.1 spike protein (SARS-CoV-2); remark: listed apart in the source
[21] = target: SARS-CoV-2 XBB.1.5 spike protein (SARS-CoV-2); remark: listed apart in the source
[22] = target: SARS-CoV-2 Delta (B.1.617.2) spike protein (SARS-CoV-2); remark: listed apart in the source
[23] = target: SARS-CoV-2 BQ.1.1 spike protein (SARS-CoV-2); remark: listed apart in the source
[24] = target: SARS-CoV-2 XBB.1.5 spike protein (SARS-CoV-2); remark: listed apart in the source
[25] = target: SARS-CoV-2 BA.2.75 spike protein (SARS-CoV-2)
[26] = target: SARS-CoV-2 BA.4/5 spike protein (SARS-CoV-2)
[27] = target: SARS-CoV-2 Delta (B.1.617.2) spike protein (SARS-CoV-2); remark: listed apart in the source
[28] = target: SARS-CoV-2 BQ.1.1 spike protein (SARS-CoV-2); remark: listed apart in the source
[29] = target: SARS-CoV-2 BN.1 spike protein (SARS-CoV-2)
[30] = target: SARS-CoV-2 BF.7.14 spike protein (SARS-CoV-2)
[31] = target: SARS-CoV-2 BA.2.12.1 spike protein (SARS-CoV-2)
[32] = target: SARS-CoV-2 BA.2.75.2 spike protein (SARS-CoV-2)
[33] = target: SARS-CoV-2 BA.1.1 spike protein (SARS-CoV-2)
[34] = target: SARS-CoV-2 BQ.1 spike protein (SARS-CoV-2)
[35] = target: SARS-CoV-2 BF.7 spike protein (SARS-CoV-2)
[36] = target: SARS-CoV-2 BA.2.3.20 spike protein (SARS-CoV-2)
[37] = target: SARS-CoV-2 BA.1 spike protein (SARS-CoV-2)
[38] = target: SARS-CoV-2 XBB.1 spike protein (SARS-CoV-2)
[39] = target: SARS-CoV-2 BA.4.6 spike protein (SARS-CoV-2)
[40] = target: SARS-CoV-2 CH.1.1 spike protein (SARS-CoV-2)
[41] = target: SARS-CoV-2 XBB.1.5 spike protein (SARS-CoV-2); remark: listed apart in the source

Sotrovimab VH/VL-hamIgG2a (antibody)
pseudovirus neutralization EC50, Vero E6 [1]: 361 ng/mL

AZD8895 (antibody)
IC50, pseudovirus neutralization [2]: 415 ng/mL
IC50, pseudovirus neutralization [3]: 1160 ng/mL
IC50, pseudovirus neutralization [4]: 608 ng/mL
IC50, pseudovirus neutralization [5]: 0.5 ng/mL
% neutralization at 4.5 µg/ml, pseudovirus [6]: 94.2%
% neutralization at 4.5 µg/ml, pseudovirus [7]: 96.5%
% neutralization at 4.5 µg/ml, pseudovirus [8]: 93.9%
% neutralization at 4.5 µg/ml, pseudovirus [9]: 25.8%
% neutralization at 4.5 µg/ml, pseudovirus [10]: 102%

AZD1061 (antibody)
IC50, pseudovirus neutralization [2]: 5.1 ng/mL
IC50, pseudovirus neutralization [3]: 1220 ng/mL
IC50, pseudovirus neutralization [4]: 5.8 ng/mL
IC50, pseudovirus neutralization [11]: 41.2 ng/mL
IC50, pseudovirus neutralization [5]: 5.9 ng/mL
% neutralization at 4.5 µg/ml, pseudovirus [6]: 99.8%
% neutralization at 4.5 µg/ml, pseudovirus [7]: 83.9%
% neutralization at 4.5 µg/ml, pseudovirus [8]: 99.7%
% neutralization at 4.5 µg/ml, pseudovirus [9]: 96.7%
% neutralization at 4.5 µg/ml, pseudovirus [10]: 100%

Sotrovimab VH/VL (human IgG1 molecule expressing the same variable regions of Sotrovimab) (antibody)
IC50, pseudovirus neutralization [2]: 714 ng/mL
IC50, pseudovirus neutralization [3]: 63.3 ng/mL
IC50, pseudovirus neutralization [4]: 392 ng/mL
IC50, pseudovirus neutralization [11]: 666 ng/mL
IC50, pseudovirus neutralization [5]: 12.3 ng/mL
IC50, pseudovirus neutralization [12]: 424 ng/mL
% neutralization at 4.5 µg/ml, pseudovirus [6]: 76.9%
IC50, pseudovirus neutralization [6]: 1200 ng/mL
% neutralization at 4.5 µg/ml, pseudovirus [7]: 99.4%
% neutralization at 4.5 µg/ml, pseudovirus [8]: 73.1%
IC50, pseudovirus neutralization [8]: 704 ng/mL
% neutralization at 4.5 µg/ml, pseudovirus [9]: 60.5%
IC50, pseudovirus neutralization [9]: > 4500 ng/mL
% neutralization at 4.5 µg/ml, pseudovirus [10]: 101%
IC50, pseudovirus neutralization [10]: 65 ng/mL

Sotrovimab VH/VL-huIgG1-LS (antibody)
pseudovirus neutralization EC90, Vero E6 (sotrovimab VH/VL-huIgG1-LS + isotype) [13]: 110 ng/mL
pseudovirus neutralization EC90, Vero E6 (sotrovimab VH/VL-huIgG1-LS + isotype) [14]: 9600 ng/mL
pseudovirus neutralization EC90, Vero E6 (sotrovimab VH/VL-huIgG1-LS + isotype) [15]: 1500 ng/mL
pseudovirus neutralization EC50, Vero E6 (sotrovimab VH/VL-huIgG1-LS + isotype) [16]: 7.9 ng/mL
pseudovirus neutralization EC50, Vero E6 (sotrovimab VH/VL-huIgG1-LS + isotype) [17]: 1200 ng/mL
pseudovirus neutralization EC50, Vero E6 (sotrovimab VH/VL-huIgG1-LS + isotype) [18]: 170 ng/mL
pseudovirus neutralization Emax, Vero E6 (sotrovimab VH/VL-huIgG1-LS + isotype) (% neutralization) [19]: 96.9
pseudovirus neutralization Emax, Vero E6 (sotrovimab VH/VL-huIgG1-LS + isotype) (% neutralization) [20]: 71.9
pseudovirus neutralization Emax, Vero E6 (sotrovimab VH/VL-huIgG1-LS + isotype) (% neutralization) [21]: 93.4
pseudovirus neutralization EC50, Vero E6 [1]: 851 ng/mL
pseudovirus neutralization EC80, Vero E6 (sotrovimab VH/VL-huIgG1-LS + isotype) [22]: 42 ng/mL
pseudovirus neutralization EC80, Vero E6 (sotrovimab VH/VL-huIgG1-LS + isotype) [23]: 4400 ng/mL
pseudovirus neutralization EC80, Vero E6 (sotrovimab VH/VL-huIgG1-LS + isotype) [24]: 680 ng/mL

Sotrovimab VH/VL-huIgG1 (antibody)
pseudovirus neutralization EC50, Vero E6 [1]: 862 ng/mL

Bebtelovimab (antibody)
pseudovirus neutralization EC90, Vero E6 (bebtelovimab + isotype) [13]: 12 ng/mL
pseudovirus neutralization EC50, Vero E6 (bebtelovimab + isotype) [16]: 0.44 ng/mL
IC50, pseudovirus neutralization [12]: 0.3 ng/mL
pseudovirus neutralization Emax, Vero E6 (bebtelovimab + isotype) (% neutralization) [19]: 99.7
pseudovirus neutralization Emax, Vero E6 (bebtelovimab + isotype) (% neutralization) [20]: 55.6
pseudovirus neutralization Emax, Vero E6 (bebtelovimab + isotype) (% neutralization) [21]: 0.55
pseudovirus neutralization EC50 [25]: 0.65 ng/mL
pseudovirus neutralization EC80 [25]: 8.2 ng/mL
pseudovirus neutralization EC90 [25]: 36 ng/mL
pseudovirus neutralization Emax (% neutralization) [25]: 99.5
pseudovirus neutralization EC50 [26]: 0.073 ng/mL
pseudovirus neutralization EC80 [26]: 1.2 ng/mL
pseudovirus neutralization EC90 [26]: 6.4 ng/mL
pseudovirus neutralization Emax (% neutralization) [26]: 99.8
pseudovirus neutralization EC50 [27]: 3.8 ng/mL
pseudovirus neutralization EC50, TMPRSS2-Vero E6 (bebtelovimab + isotype) [27]: 1.6 ng/mL
pseudovirus neutralization EC50, Vero E6 (bebtelovimab + isotype) [27]: 0.63 ng/mL
pseudovirus neutralization EC80 [27]: 23 ng/mL
pseudovirus neutralization EC80, TMPRSS2-Vero E6 (bebtelovimab + isotype) [27]: 13 ng/mL
pseudovirus neutralization EC80, Vero E6 (bebtelovimab + isotype) [27]: 4.2 ng/mL
pseudovirus neutralization EC90 [27]: 66 ng/mL
pseudovirus neutralization EC90, TMPRSS2-Vero E6 (bebtelovimab + isotype) [27]: 43 ng/mL
pseudovirus neutralization EC90, Vero E6 (bebtelovimab + isotype) [27]: 13 ng/mL
pseudovirus neutralization Emax (% neutralization) [27]: 99.9
pseudovirus neutralization Emax, TMPRSS2-Vero E6 (bebtelovimab + isotype) (% neutralization) [27]: 99.7
pseudovirus neutralization Emax, Vero E6 (bebtelovimab + isotype) (% neutralization) [27]: 99.7
pseudovirus neutralization Emax (% neutralization) [28]: 53
pseudovirus neutralization Emax, TMPRSS2-Vero E6 (bebtelovimab + isotype) (% neutralization) [28]: 40.5
pseudovirus neutralization Emax, Vero E6 (bebtelovimab + isotype) (% neutralization) [28]: 59.1
pseudovirus neutralization EC50 [29]: 0.467 ng/mL
pseudovirus neutralization EC80 [29]: 5.3 ng/mL
pseudovirus neutralization EC90 [29]: 22 ng/mL
pseudovirus neutralization Emax (% neutralization) [29]: 99.4
pseudovirus neutralization EC50 [30]: 0.22 ng/mL
pseudovirus neutralization EC80 [30]: 1.4 ng/mL
pseudovirus neutralization EC90 [30]: 4.1 ng/mL
pseudovirus neutralization Emax (% neutralization) [30]: 99.8
pseudovirus neutralization EC50 [31]: 0.2 ng/mL
pseudovirus neutralization EC80 [31]: 1.2 ng/mL
pseudovirus neutralization EC90 [31]: 3.6 ng/mL
pseudovirus neutralization Emax (% neutralization) [31]: 99.9
pseudovirus neutralization EC50 [32]: 0.46 ng/mL
pseudovirus neutralization EC80 [32]: 6.3 ng/mL
pseudovirus neutralization EC90 [32]: 29 ng/mL
pseudovirus neutralization Emax (% neutralization) [32]: 99.5
pseudovirus neutralization EC50 [33]: 0.12 ng/mL
pseudovirus neutralization EC80 [33]: 1.3 ng/mL
pseudovirus neutralization EC90 [33]: 5.6 ng/mL
pseudovirus neutralization Emax (% neutralization) [33]: 99.9
pseudovirus neutralization Emax (% neutralization) [34]: 72.2
pseudovirus neutralization EC50 [35]: 0.11 ng/mL
pseudovirus neutralization EC80 [35]: 1.7 ng/mL
pseudovirus neutralization EC90 [35]: 8.5 ng/mL
pseudovirus neutralization Emax (% neutralization) [35]: 99.8
pseudovirus neutralization EC50 [36]: 12 ng/mL
pseudovirus neutralization EC80 [36]: 360 ng/mL
pseudovirus neutralization EC90 [36]: 2600 ng/mL
pseudovirus neutralization Emax (% neutralization) [36]: 97.9
pseudovirus neutralization EC50 [37]: 0.17 ng/mL
pseudovirus neutralization EC80 [37]: 1.8 ng/mL
pseudovirus neutralization EC90 [37]: 7.2 ng/mL
pseudovirus neutralization Emax (% neutralization) [37]: 99.8
pseudovirus neutralization EC50 [1]: 0.2 ng/mL
pseudovirus neutralization EC80 [1]: 1.4 ng/mL
pseudovirus neutralization EC90 [1]: 4.4 ng/mL
pseudovirus neutralization Emax (% neutralization) [1]: 99.9
pseudovirus neutralization Emax (% neutralization) [38]: 10.8
pseudovirus neutralization EC50 [39]: 0.2 ng/mL
pseudovirus neutralization EC80 [39]: 2.5 ng/mL
pseudovirus neutralization EC90 [39]: 11 ng/mL
pseudovirus neutralization Emax (% neutralization) [39]: 99.6
pseudovirus neutralization Emax (% neutralization) [40]: 5.32
pseudovirus neutralization Emax (% neutralization) [41]: 2.01
pseudovirus neutralization Emax, TMPRSS2-Vero E6 (bebtelovimab + isotype) (% neutralization) [41]: 2.93
pseudovirus neutralization Emax, Vero E6 (bebtelovimab + isotype) (% neutralization) [41]: 4.21
pseudovirus neutralization EC80, Vero E6 (bebtelovimab + isotype) [22]: 3.5 ng/mL
